*1 amine or outer side, *2 acyl side, *3 side chain or, on linkers, in order; H or OH if unused. Where a SMILES comes first, the peptide text is derived from it. [ ]: non-standard residue; d: D form. The star is where a group is joined. dPhe(4-125I) = para-(125I)iodo-D-phenylalanine, O=C([C@@H](Cc1ccc([125I])cc1)N[*:1])[*:2]; dPhe(4-Cl) = N[C@H](Cc1ccc(Cl)cc1)C(=O)O; dPhe(4-I) = N[C@H](Cc1ccc(I)cc1)C(=O)O; 2Nal = N[C@@H](Cc1ccc2ccccc2c1)C(=O)O; d2Nal = N[C@H](Cc1ccc2ccccc2c1)C(=O)O; Fmoc = O=C(OCC1c2ccccc2-c2ccccc21)*; Cha = N[C@@H](CC1CCCCC1)C(=O)O; d2Thi = N[C@H](Cc1cccs1)C(=O)O; Nle = CCCC[C@H](N)C(=O)O
Legend:
[1] = target: MC receptors of mouse B16 cells (mouse); test: competition binding, mouse B16 cells; tracer not stated
[2] = target: MC receptors in rat brain homogenate (rat); test: competition binding, rat brain membranes
[3] = target: MC receptors in rat brain homogenate; test: Melanocortin receptor binding assay using ^125I-HP 467 in rat brain homogenate; conditions: individual tetrapeptides
Procedure: For assays, fine chemicals were obtained from Sigma (St. Louis Mo.) and GF/B plates and MICROSCINT were obtained from Packard Instrument Co. (Meriden Conn.). Frozen rat brains were thawed and the thalamus and hypothalamus were dissected out and weighed. The tissue was homogenized in 40 ml buffer A (50 mM Tris-HCl, 2 mM EDTA, 10 mM CaCl2, 100 μM PMSF, pH 7.4) in a Dounce homogenizer. The homogenate was centrifuged at 39,000×g for 10 min, resuspended in 20 ml fresh buffer and recentrifuged. The pellet was resuspended in 80 ml buffer B (50 mM Tris-HCl, 2 mM EDTA, 10 mM CaCl2, 5 mM MgCl2, 100 μM PMSF, pH 7.4). ^125I-HP 467 was custom labeled by Amersham to a specific activity of 2000 Ci/mmol (Amersham; Arlington Heights IL). Fifty pM ^125I-HP 467 and 0.2 mg protein/ml membrane suspension containing 2 mg/ml BSA was added to each assay tube.
Competition assays were performed using α-MSH, γ1-MSH, γ2-MSH, γ3-MSH and ACTH (4-10) also containing 1 mM phenanthroline, 200 μg/ml bacitracin, and 5 μg/ml leupeptin. Tubes were incubated for 2 hours at 37° C. The assay was terminated by filtration through GF/B filters previously soaked in 5 mg/ml BSA Tris-HCl buffer. The samples were washed with Tris-HCl, dried and counted in Packard Minaxl gamma counter (Packard Instrument Co.).
IC50 values were determined in brain tissue as described in Example III.

[4] = target: MC receptors in rat brain homogenate; test: as above; conditions: saturation binding to rat brain membranes
[5] = target: human melanocortin receptor 1 (human) (UniProt Q01726); test: saturation radioligand binding; HEK 293 cells expressing MC1
[6] = target: human melanocortin receptor 1 (human) (UniProt Q01726); test: saturation radioligand binding; mouse L cells expressing MC1
[7] = target: human melanocortin receptor 3 (human) (UniProt P41968); test: saturation radioligand binding; mouse L cells expressing MC3
[8] = target: human melanocortin receptor 4 (human) (UniProt P32245); test: saturation radioligand binding; mouse L cells expressing MC4
[9] = target: human melanocortin receptor 3 (human) (UniProt P41968); test: saturation radioligand binding; HEK 293 cells expressing MC3
[10] = test system: Sprague-Dawley rats; test: HP 467 antagonism of HP 228 induced hypophagia (food intake); format: in vivo; conditions: IP BID, HP 228 1.5 mg/kg, HP 467 3.0 mg/kg
Procedure: Male Sprague-Dawley rats weighing 250 to 300 grams were divided into three treatment groups of 8 rats each. The control group received IP saline injections BID (1 ml/kg) at 8 AM and 4 PM. […] After each injection, each rat immediately received a second injection. […] All injections started at 4 PM on day 0 and ended on the afternoon of day 2. Food consumption and body weight measurements were taken daily, each morning.

[11] = target: T1, hMC1 (Homo sapiens, UniProt Q01726); test: Displacement of ^125I-HP 467 in transfected mouse L cells expressing hMC1; conditions: receptor expressed in mouse L cells, read-out: Binding IC50, MC-1
T1 construct: expressed in transfected cells; host or cells: mouse L cells

[12] = target: T2, hMC5 (Homo sapiens, UniProt P33032); test: Displacement of ^125I-HP 467 in HEK 293 cells expressing hMC5; conditions: receptor expressed in HEK 293 cells, read-out: Binding IC50, MC-5
T2 construct: expressed in transfected cells; host or cells: HEK 293 cells

[13] = target: T3, hMC4 (Homo sapiens, UniProt P32245); test: Displacement of ^125I-HP 467 in transfected mouse L cells expressing hMC4; conditions: receptor expressed in mouse L cells, read-out: Binding IC50, MC-4
T3 construct: expressed in transfected cells; host or cells: mouse L cells

[14] = target: T4, hMC3 (Homo sapiens, UniProt P41968); test: Displacement of ^125I-HP 467 in transfected mouse L cells expressing hMC3; conditions: receptor expressed in mouse L cells, read-out: Binding IC50, MC-3
T4 construct: expressed in transfected cells; host or cells: mouse L cells

[15] = target: T5, MC receptor in mouse B16 cells (Mus musculus, UniProt Q01727); test: MC receptor binding activity in mouse B16 cells; conditions: individual tetrapeptides
T5 construct: endogenous in cells; host or cells: mouse B16 cells
Text: The 36 peptides were screened for MC receptor binding activity in rat brain and in mouse B16 cells.

[16] = target: MC receptors in rat brain homogenate (rat); test: saturation radioligand binding, rat brain membranes

MC receptors of mouse B16 cells (mouse), sequence (Q01727 whole entry): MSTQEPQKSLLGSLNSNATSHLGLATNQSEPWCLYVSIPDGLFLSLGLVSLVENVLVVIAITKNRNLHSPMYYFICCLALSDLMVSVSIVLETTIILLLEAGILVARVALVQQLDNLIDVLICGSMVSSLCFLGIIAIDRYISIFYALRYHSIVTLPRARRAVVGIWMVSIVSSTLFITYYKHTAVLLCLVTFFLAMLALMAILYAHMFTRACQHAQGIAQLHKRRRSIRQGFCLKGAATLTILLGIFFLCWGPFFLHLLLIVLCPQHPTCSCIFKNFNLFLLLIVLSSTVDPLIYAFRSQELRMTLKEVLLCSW
human melanocortin receptor 3 (human), sequence (P41968 whole entry): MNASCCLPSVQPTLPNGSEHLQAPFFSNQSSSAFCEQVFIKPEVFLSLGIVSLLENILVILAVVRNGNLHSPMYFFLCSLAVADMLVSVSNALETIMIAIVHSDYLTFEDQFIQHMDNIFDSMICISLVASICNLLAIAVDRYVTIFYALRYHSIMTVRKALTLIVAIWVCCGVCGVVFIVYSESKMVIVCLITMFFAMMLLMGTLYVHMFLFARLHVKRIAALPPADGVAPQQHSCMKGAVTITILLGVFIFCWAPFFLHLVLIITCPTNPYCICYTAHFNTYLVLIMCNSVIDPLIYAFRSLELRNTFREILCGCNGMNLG
T2 sequence (P33032 whole entry): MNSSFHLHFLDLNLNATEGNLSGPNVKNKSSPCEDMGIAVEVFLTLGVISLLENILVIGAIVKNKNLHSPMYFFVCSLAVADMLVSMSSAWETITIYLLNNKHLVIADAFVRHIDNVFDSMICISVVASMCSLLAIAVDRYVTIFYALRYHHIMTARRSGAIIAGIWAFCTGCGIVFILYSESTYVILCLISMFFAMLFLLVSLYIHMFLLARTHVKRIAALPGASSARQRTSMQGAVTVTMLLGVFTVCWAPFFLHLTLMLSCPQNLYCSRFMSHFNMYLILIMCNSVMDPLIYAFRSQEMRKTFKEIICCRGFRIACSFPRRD
T1 sequence (Q01726 whole entry): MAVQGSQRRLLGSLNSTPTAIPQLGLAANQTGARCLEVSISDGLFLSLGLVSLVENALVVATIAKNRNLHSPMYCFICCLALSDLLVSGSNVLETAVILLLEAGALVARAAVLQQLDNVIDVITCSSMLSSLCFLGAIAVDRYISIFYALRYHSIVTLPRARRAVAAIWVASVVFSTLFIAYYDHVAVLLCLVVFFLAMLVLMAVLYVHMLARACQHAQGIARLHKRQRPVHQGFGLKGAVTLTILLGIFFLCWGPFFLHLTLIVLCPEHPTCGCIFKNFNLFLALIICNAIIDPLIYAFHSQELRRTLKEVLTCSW
human melanocortin receptor 1 (human), sequence (Q01726 whole entry): as above
T3 sequence (P32245 whole entry): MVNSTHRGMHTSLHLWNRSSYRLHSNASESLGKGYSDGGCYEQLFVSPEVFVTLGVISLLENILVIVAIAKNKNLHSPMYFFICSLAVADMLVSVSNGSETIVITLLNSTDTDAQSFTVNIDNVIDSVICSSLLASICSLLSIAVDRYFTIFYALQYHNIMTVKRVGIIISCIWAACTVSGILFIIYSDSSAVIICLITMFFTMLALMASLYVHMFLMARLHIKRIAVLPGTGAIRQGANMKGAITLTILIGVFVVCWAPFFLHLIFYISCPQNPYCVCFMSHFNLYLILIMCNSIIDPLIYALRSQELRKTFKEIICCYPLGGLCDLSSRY
human melanocortin receptor 4 (human), sequence (P32245 whole entry): as above
T4 sequence (P41968 whole entry): as the sequence (P41968 whole entry) above
T5 sequence (Q01727 whole entry): as the sequence (Q01727 whole entry) above

Molecule: Ac-(αFmLys)-R-R-(Nal)-NH2 (peptide)
- IC50 [1]: 1420 nM
- IC50 [2]: 2000 nM

Molecule: CC(=O)N[C@@H](Cc1c[nH]cn1)C(=O)N[C@H](Cc1ccc(Cl)cc1)C(=O)N[C@@H](CCCNC(=N)N)C(=O)N[C@H](Cc1ccc2ccccc2c1)C(N)=O [Ac—H-(pCl-f)-R-(D-Nal)-NH2, Ac-His-(pCl-f)-Arg-(D-Nal)-NH2] (Ac-H[dPhe(4-Cl)]R[d2Nal]-NH2)
- IC50 [3]: 51 nM
- IC50 ([3]; listed as Ac-His-(pCl-f)-Arg-(D-Nal)-NH2): 18 nM

Molecule: Ac-(αFmLys)-R-(L-Cha)-(Nal)-NH2 (peptide)
- IC50 [1]: 1140 nM

Molecule: CC(=O)NCCCC[C@H](NC(=O)OCC1c2ccccc2-c2ccccc21)C(=O)N[C@@H](CCCNC(=N)N)C(=O)N[C@@H](CC1CCCCC1)C(=O)N[C@H](CCCNC(=N)N)C(N)=O [Ac-(αFmLys)-R-(L-Cha)-r-NH2] (Fmoc-K(Ac)R[Cha][dR]-NH2)
- IC50 [3]: 427 nM

Molecule: CCCC[C@H](NC(C)=O)C(=O)N[C@@H](CCC(N)=O)C(=O)N[C@@H](Cc1c[nH]cn1)C(=O)N[C@H](Cc1ccc(I)cc1)C(=O)N[C@@H](CCCNC(=N)N)C(=O)N[C@H](Cc1c[nH]c2ccccc12)C(=O)NCC(N)=O [^125I-HP 467, Ac-Nle-Gln-His-(p(^125I)-D-Phe)-Arg-(D-Trp)-Gly-NH2] (Ac-[Nle]QH[dPhe(4-I)]R[dW]G-NH2)
- Kd [4]: 0.4 nM

Molecule: CC(=O)N[C@@H](Cc1c[nH]cn1)C(=O)N[C@H](Cc1ccc(Cl)cc1)C(=O)N[C@@H](CCCNC(=N)N)C(=O)N[C@@H](Cc1ccc2ccccc2c1)C(N)=O [AC—H-(pcl-f)-R-(Nal)-NH2] (Ac-H[dPhe(4-Cl)]R[2Nal]-NH2)
- IC50 [3]: 18 nM

Molecule: CC(=O)NCCCC[C@H](NC(=O)OCC1c2ccccc2-c2ccccc21)C(=O)N[C@H](Cc1cccs1)C(=O)N[C@@H](CCCNC(=N)N)C(=O)N[C@@H](Cc1ccc2ccccc2c1)C(N)=O [Ac-(αFmLys)-(D-Thi)-R-(Nal)-NH2] (Fmoc-K(Ac)[d2Thi]R[2Nal]-NH2)
- IC50 [3]: 469 nM

Molecule: ^125I-HP 467, Ac-Nle-Gln-His-(p(^125I)-D-Phe)-Arg-(D-Trp)-Gly-NH2
- Kd [5]: 0.132 nM
- Kd [6]: 0.092 nM
- Kd [7]: 0.04 nM
- Kd [8]: 0.082 nM
- Kd [9]: 0.29 nM

Molecule: Ac-H-(pcl-f)-(L-Cha)-r-NH2 (peptide)
- IC50 [1]: 156 nM

Molecule: Ac-H-(pCl-f)-R-(D-Nal)-NH2 (SEQ ID NO:18) (peptide)
- IC50 [1]: 19 nM
- IC50 [2]: 51 nM

Molecule: Ac-(αFmLys)-(pCl-f)-R-(Nal)-NH2 (peptide)
- IC50 [1]: 41 nM
- IC50 [2]: 427 nM

Molecule: Ac-(αFmLys)-R-(L-Cha)-r-NH2 (peptide)
- IC50 [1]: 185 nM
- IC50 [2]: 427 nM

Molecule: CC(=O)NCCCC[C@H](NC(=O)OCC1c2ccccc2-c2ccccc21)C(=O)N[C@H](Cc1ccc(Cl)cc1)C(=O)N[C@@H](CCCNC(=N)N)C(=O)N[C@@H](Cc1ccc2ccccc2c1)C(N)=O [Ac-(αFmLys)-(pCl-f)-R-(Nal)-NH2] (Fmoc-K(Ac)[dPhe(4-Cl)]R[2Nal]-NH2)
- IC50 [3]: 427 nM

Molecule: CCCC[C@H](NC(C)=O)C(=O)N[C@@H](CCC(N)=O)C(=O)N[C@@H](Cc1c[nH]cn1)C(=O)N[C@H](Cc1ccccc1)C(=O)N[C@@H](CCCNC(=N)N)C(=O)N[C@H](Cc1c[nH]c2ccccc12)C(=O)NCC(N)=O [HP 228, Ac-(Nle)QHfRwG-NH2, reference compound]
- Hypophagia (food intake) Change, Day 1 ([10]; Day 1): −6.8%
- Hypophagia (food intake) Change, Day 2 ([10]; Day 2): −5.3%
- IC50 [11]: 1.49 nM
- IC50 [12]: 194 nM

Molecule: CC(=O)NCCCC[C@H](NC(=O)OCC1c2ccccc2-c2ccccc21)C(=O)N[C@@H](CCCNC(=N)N)C(=O)N[C@@H](CCCNC(=N)N)C(=O)N[C@@H](Cc1ccc2ccccc2c1)C(N)=O [Ac-(αFmLys)-R-R-(Nal)-NH2] (Fmoc-K(Ac)RR[2Nal]-NH2)
- IC50 [3]: 2000 nM

Molecule: CCCC[C@H](NC(C)=O)C(=O)N[C@@H](CCC(N)=O)C(=O)N[C@@H](Cc1c[nH]cn1)C(=O)N[C@H](Cc1ccc(I)cc1)C(=O)N[C@@H](CCCNC(=N)N)C(=O)N[C@H](Cc1c[nH]c2ccccc12)C(=O)NCC(N)=O [HP 467, Ac-Nle-Gln-His-(p(I)-D-Phe)-Arg-(D-Trp)-Gly-NH2] (Ac-[Nle]QH[dPhe(4-I)]R[dW]G-NH2)
- IC50 [13]: 0.31 nM
- IC50 [14]: 0.48 nM
- IC50 [11]: 0.23 nM
- IC50 [12]: 0.46 nM

Molecule: CC(=O)NCCCC[C@H](NC(=O)OCC1c2ccccc2-c2ccccc21)C(=O)N[C@@H](CCCNC(=N)N)C(=O)N[C@@H](CC1CCCCC1)C(=O)N[C@@H](Cc1ccc2ccccc2c1)C(N)=O [Ac-(αFmLys)-R-(L-Cha)-(Nal)-NH2] (Fmoc-K(Ac)R[Cha][2Nal]-NH2)
- IC50 [3]: > 4000 nM

Molecule: CC(=O)N[C@@H](Cc1c[nH]cn1)C(=O)N[C@H](Cc1ccc(Cl)cc1)C(=O)N[C@@H](CC1CCCCC1)C(=O)N[C@H](CCCNC(=N)N)C(N)=O [Ac—H-(pcl-f)-(L-Cha)-r-NH2] (Ac-H[dPhe(4-Cl)][Cha][dR]-NH2)
- IC50 [3]: > 5000 nM
- IC50 [15]: 156 nM

Molecule: Ac-(αFmLys)-(D-Thi)-R-(Nal)-NH2 (peptide)
- IC50 [2]: 469 nM

Molecule: AC-H-(pcl-f)-R-(Nal)-NH2 (peptide)
- IC50 [1]: 68 nM
- IC50 [2]: 18 nM

Molecule: Ac-[Nle]QH[dPhe(4-125I)]R[dW]G-NH2 [^125I-HP 467, Ac-Nle-Gln-His-(p(^125I)-D-Phe)-Arg-(D-Trp)-Gly-NH2]
- Bmax (fmoles/mg protein) [16]: 21
- Kd [16]: 0.4 nM

Source: patent US6350430B1, “Melanocortin receptor ligands and methods of using same” (Lion Bioscience Science AG, priority 1997, dated 2002)
